Substrate in the data set “purified protein”: Nc1ncnc2c1ncn2[C@@H]1O[C@H](COP(=O)(O)OP(=O)(O)OP(=O)(O)O)[C@@H](O)[C@H]1O
Briefly: purified protein. The following applies: 500 nM MetNI in DDM, equimolar MgCl2 and ATP, 37 °C, no MetQ, no Met.

The target of data set [1] is T1, E. coli MetNI transporter, N295A mutant (E. coli, UniProt P30750 1-343; P31547 1-217, N295A).
T1 sequence (looked up) 1: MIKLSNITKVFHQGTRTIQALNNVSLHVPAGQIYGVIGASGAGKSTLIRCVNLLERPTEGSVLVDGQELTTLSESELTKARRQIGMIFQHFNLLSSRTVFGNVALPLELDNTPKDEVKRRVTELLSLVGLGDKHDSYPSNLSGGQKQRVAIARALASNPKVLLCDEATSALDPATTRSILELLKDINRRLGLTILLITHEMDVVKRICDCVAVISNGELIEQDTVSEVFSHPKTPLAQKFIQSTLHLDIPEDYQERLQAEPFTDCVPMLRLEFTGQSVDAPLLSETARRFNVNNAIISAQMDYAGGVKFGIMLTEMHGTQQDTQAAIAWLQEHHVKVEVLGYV
T1 sequence (looked up) 2: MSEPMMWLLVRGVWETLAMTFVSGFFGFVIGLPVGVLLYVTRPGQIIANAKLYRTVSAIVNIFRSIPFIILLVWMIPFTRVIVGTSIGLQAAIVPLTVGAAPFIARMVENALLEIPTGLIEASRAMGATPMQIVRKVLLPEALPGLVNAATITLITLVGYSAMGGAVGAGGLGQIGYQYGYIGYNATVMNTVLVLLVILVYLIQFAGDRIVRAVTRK
The experiment in a line: cell-based or functional assay.

Data set [2] deals with T2, E. coli MetNI transporter, E166Q/N295A double mutant, detergent-solubilized (E. coli, UniProt P30750 1-343; P31547 1-217, E166Q | N295A).
T2 sequence 1: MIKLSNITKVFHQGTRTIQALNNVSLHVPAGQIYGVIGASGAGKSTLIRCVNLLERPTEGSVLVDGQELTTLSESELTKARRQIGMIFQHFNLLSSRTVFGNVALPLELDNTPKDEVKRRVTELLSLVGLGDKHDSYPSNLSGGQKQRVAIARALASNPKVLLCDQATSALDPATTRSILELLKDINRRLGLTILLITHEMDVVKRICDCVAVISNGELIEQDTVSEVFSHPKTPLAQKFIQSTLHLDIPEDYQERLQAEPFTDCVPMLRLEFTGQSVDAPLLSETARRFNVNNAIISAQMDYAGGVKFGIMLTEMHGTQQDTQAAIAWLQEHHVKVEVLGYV
T2 sequence 2: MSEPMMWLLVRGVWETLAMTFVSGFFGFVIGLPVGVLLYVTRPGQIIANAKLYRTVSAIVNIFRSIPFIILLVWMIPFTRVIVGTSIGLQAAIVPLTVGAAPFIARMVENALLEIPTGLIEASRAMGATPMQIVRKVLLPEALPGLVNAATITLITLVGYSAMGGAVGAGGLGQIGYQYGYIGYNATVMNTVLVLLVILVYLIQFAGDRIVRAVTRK
Briefly: FP; unfolded-refolded N229A MetQ, ATP/EDTA.

For data set [3], the target named is T3, E. coli MetNI transporter, E166Q/N295A double mutant, detergent-solubilized (E. coli, UniProt P30750 1-343; P31547 1-217, E166Q | N295A).
T3 construct: MetI, the transmembrane (permease) subunit of the E. coli methionine ABC importer MetNI; also called E166Q/N295A MetNI; source: purified, detergent-solubilized (DDM); copies: 2 + 2
T3 sequence (looked up) 1: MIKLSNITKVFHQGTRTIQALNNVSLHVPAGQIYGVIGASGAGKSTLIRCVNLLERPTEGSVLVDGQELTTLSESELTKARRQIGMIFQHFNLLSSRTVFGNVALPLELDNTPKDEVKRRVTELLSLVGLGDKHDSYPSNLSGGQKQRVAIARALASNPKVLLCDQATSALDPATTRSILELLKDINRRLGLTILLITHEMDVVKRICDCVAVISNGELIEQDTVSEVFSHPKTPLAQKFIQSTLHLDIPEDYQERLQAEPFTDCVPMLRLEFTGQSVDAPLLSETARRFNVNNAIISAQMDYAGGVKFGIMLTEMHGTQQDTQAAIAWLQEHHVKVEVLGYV
T3 sequence (looked up) 2: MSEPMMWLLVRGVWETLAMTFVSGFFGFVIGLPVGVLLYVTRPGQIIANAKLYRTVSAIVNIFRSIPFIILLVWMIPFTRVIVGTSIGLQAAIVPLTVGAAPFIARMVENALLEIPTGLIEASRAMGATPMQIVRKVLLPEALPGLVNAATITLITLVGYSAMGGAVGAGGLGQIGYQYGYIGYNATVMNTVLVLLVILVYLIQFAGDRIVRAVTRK
The experiment in a line: fluorescence polarisation; 20 nM fluorescein-labelled MetQ held constant, detergent-solubilized E166Q/N295A MetNI 0-10 uM; ATP-bound state mimicked with 5 mM ATP and 10 mM EDTA; no methionine added (unfolded-refolded WT MetQ or native N229A); 57.5 mM Tris pH 7.5, 10 mM TAPS pH 8.5, 150 mM NaCl, 1.5 mM bME, 0.05% DDM; single-site binding model. The following applies: both partners purified.

For data set [4], the target named is T3, E. coli MetNI transporter, E166Q/N295A …. The experiment in a line: fluorescence polarisation; as a1 (5 mM ATP and 10 mM EDTA), unfolded-refolded WT MetQ with exogenous 100 uM D-Met. As to conditions: both partners purified. A general note: In fluorescence polarisation assays a small probe gives low polarisation when free and higher when bound to something large.

The target is the same in data set [5]. The experiment in a line: fluorescence polarisation; as a1 (5 mM ATP and 10 mM EDTA), unfolded-refolded WT MetQ with exogenous 100 uM L-Met. As to conditions: both partners purified.
For data set [6] the target is unchanged. Briefly: fluorescence polarisation; control: native WT MetQ (co-purifies with L-Met, not unfolded-refolded) with detergent-solubilized E166Q/N295A MetNI. The following applies: both partners purified.

B1: MetNI (Escherichia coli K-12) (protein)
chain: MIKLSNITKVFHQGTRTIQALNNVSLHVPAGQIYGVIGASGAGKSTLIRCVNLLERPTEGSVLVDGQELTTLSESELTKARRQIGMIFQHFNLLSSRTVFGNVALPLELDNTPKDEVKRRVTELLSLVGLGDKHDSYPSNLSGGQKQRVAIARALASNPKVLLCDEATSALDPATTRSILELLKDINRRLGLTILLITHEMDVVKRICDCVAVISNGELIEQDTVSEVFSHPKTPLAQKFIQSTLHLDIPEDYQERLQAEPFTDCVPMLRLEFTGQSVDAPLLSETARRFNVNNNIISAQMDYAGGVKFGIMLTEMHGTQQDTQAAIAWLQEHHVKVEVLGYV
One may read the Km as the substrate concentration at which the rate is half of its maximum. In general, kcat refers to the number of substrate molecules converted per active site and unit of time at saturation. As for B1, in “purified protein”, the Km was 800 ± 100 µM and the kcat was 0.4 ± 0.067 s⁻¹.

B2: MetNI (Escherichia coli K-12; N295A) (protein)
chain: MIKLSNITKVFHQGTRTIQALNNVSLHVPAGQIYGVIGASGAGKSTLIRCVNLLERPTEGSVLVDGQELTTLSESELTKARRQIGMIFQHFNLLSSRTVFGNVALPLELDNTPKDEVKRRVTELLSLVGLGDKHDSYPSNLSGGQKQRVAIARALASNPKVLLCDEATSALDPATTRSILELLKDINRRLGLTILLITHEMDVVKRICDCVAVISNGELIEQDTVSEVFSHPKTPLAQKFIQSTLHLDIPEDYQERLQAEPFTDCVPMLRLEFTGQSVDAPLLSETARRFNVNNAIISAQMDYAGGVKFGIMLTEMHGTQQDTQAAIAWLQEHHVKVEVLGYV
In the case of B2, in “purified protein”, the Km is 812 ± 4 µM and the kcat stood at 0.4 ± 0.067 s⁻¹.

B3: E. coli MetQ N229A, secreted (non-lipidated), C-terminal 6x-histidine tag (natural protein, UniProt P28635 23-271, looked up)
chain: CGQDEKDPNHIKVGVIVGAEQQVAEVAQKVAKDKYGLDVELVTFNDYVLPNEALSKGDIDANAFQHKPYLDQQLKDRGYKLVAVGNTFVYPIAGYSKKIKSLDELQDGSQVAVPNDPTNLGRSLLLLQKVGLIKLKDGVGLLPTVLDVVENPKNLKIVELEAPQLPRSLDDAQIALAVINTTYASQIGLTPAKDGIFVEDKESPYVALIVTREDNKDAENVKKFVQAYQSDEVYEAANKVFNGGAVKGW
modifications: fluorescein 5-maleimide on the single native cysteine at position 23 (anisotropy experiments)
notes: secreted non-lipidated form isolated from the periplasmic extract; The protein is unlabelled in the ATPase assays; also called N229A MetQ; native N229A; source: E. coli BL21 (DE3) Gold, periplasmic extract, purified (HisTrap, Superdex 200); not shown: His6, C-terminal, kept
In general, Kd refers to the free concentration of one partner at which half of the binding sites on the other are occupied at equilibrium, for simple one-to-one binding. The low end stands for a tighter complex, the high end for a looser complex. With B3, the “kcat of MetQ-stimulated ATPase activity of detergent-solubilized N295A MetNI, 5 mM MgATP, native N229A MetQ 0-50 μM” value in data set [1] was found to be 4.45 s⁻¹. Also, the Kd in data set [2] was 113 nM; in data set [3], 300 nM.

B4: E. coli MetQ substrate-binding protein, wild type, secreted (non-lipidated), C-terminal 6x-histidine tag (natural protein, UniProt P28635 23-271, looked up)
chain: CGQDEKDPNHIKVGVIVGAEQQVAEVAQKVAKDKYGLDVELVTFNDYVLPNEALSKGDIDANAFQHKPYLDQQLKDRGYKLVAVGNTFVYPIAGYSKKIKSLDELQDGSQVAVPNDPTNLGRSLLLLQKVGLIKLKDGVGLLPTVLDVVENPKNLKIVELEAPQLPRSLDDAQIALAVINTTYASQIGLTPAKDGIFVEDKESPYVNLIVTREDNKDAENVKKFVQAYQSDEVYEAANKVFNGGAVKGW
modifications: fluorescein 5-maleimide on the single native cysteine at position 23 (anisotropy experiments)
notes: secreted non-lipidated form isolated from the periplasmic extract; Cys23 is present; WT(apo), WT(LM) and WT(DM) are the same protein without methionine, with 100 uM L-Met or with 100 uM D-Met; native WT co-purifies with L-Met; The protein is unlabelled in the ATPase assays; also called WT MetQ; WT(apo); source: E. coli BL21 (DE3) Gold, periplasmic extract, purified (HisTrap, Superdex 200); not …
With B4, in data set [1], the “kcat of MetQ-stimulated ATPase activity of detergent-solubilized N295A MetNI, 5 mM MgATP, WT(DM) MetQ 0-50 μM with 100 μM D-Met” value was determined as 1.83 s⁻¹. In data set [1], the “kcat of MetQ-stimulated ATPase activity of detergent-solubilized N295A MetNI, 5 mM MgATP, WT(LM) MetQ 0-50 μM with 100 μM L-Met” value came to 1 s⁻¹. In addition, in data set [1], the “kcat of MetQ-stimulated ATPase activity of detergent-solubilized N295A MetNI, 5 mM MgATP, WT(apo) MetQ 0-50 μM” value stood at 4 s⁻¹. Moreover, the Kd in data set [4] is 800 nM; in data set [5], 5000 nM; in data set [6], 8000 ± 2000 nM; in data set [3], 400 nM.

These data come from PMC12357092, “Two stages of substrate discrimination dictate selectivity in the Escherichia coli MetNI-Q ABC transporter system” (The Journal of Biological Chemistry, 2025).
